Measured values: patent publication US20260242735A1 (UNIVERSIT T BASEL, published 2026)

Key:
Assay in all cases: BLI (Octet R8), avidity format: biotinylated CD33 on streptavidin sensor, Refmab #3 as analyte at 500 nM;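 further: analyte association recorded over 300 s, then dissociation followed for 900 s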
[1] = molecular target: CD33 variant W22E (recombinant, biotinylated) (human, UniProt P20138 18-259, biotinylated with EZ-Link Sulfo-NHS-LC-Biotin (sites not given))
[2] = molecular target: CD33 variant Y50K (recombinant, biotinylated) (human, UniProt P20138 18-259, biotinylated with EZ-Link Sulfo-NHS-LC-Biotin (sites not given))
[3] = molecular target: CD33 variant F21N (recombinant, biotinylated) (human, UniProt P20138 22-259, biotinylated with EZ-Link Sulfo-NHS-LC-Biotin (sites not given))
[4] = molecular target: CD33 variant F21I (recombinant, biotinylated) (human, UniProt P20138 22-259, biotinylated with EZ-Link Sulfo-NHS-LC-Biotin (sites not given))
[5] = molecular target: CD33 variant W22K (recombinant, biotinylated) (human, UniProt P20138 18-259, biotinylated with EZ-Link Sulfo-NHS-LC-Biotin (sites not given))
[6] = molecular target: CD33 variant F21L (recombinant, biotinylated) (human, UniProt P20138 22-259, biotinylated with EZ-Link Sulfo-NHS-LC-Biotin (sites not given))
[7] = molecular target: CD33 variant F44P (recombinant, biotinylated) (human, UniProt P20138 18-259, biotinylated with EZ-Link Sulfo-NHS-LC-Biotin (sites not given))
[8] = molecular target: CD33 variant W22T (recombinant, biotinylated) (human, UniProt P20138 18-259, biotinylated with EZ-Link Sulfo-NHS-LC-Biotin (sites not given))
[9] = molecular target: CD33 variant F21M (recombinant, biotinylated) (human, UniProt P20138 22-259, biotinylated with EZ-Link Sulfo-NHS-LC-Biotin (sites not given))
[10] = molecular target: CD33 variant N20H (recombinant, biotinylated) (human, UniProt P20138 21-259, biotinylated with EZ-Link Sulfo-NHS-LC-Biotin (sites not given))
[11] = molecular target: CD33 variant F21S (recombinant, biotinylated) (human, UniProt P20138 22-259, biotinylated with EZ-Link Sulfo-NHS-LC-Biotin (sites not given))
[12] = molecular target: CD33 variant N20E (recombinant, biotinylated) (human, UniProt P20138 21-259, biotinylated with EZ-Link Sulfo-NHS-LC-Biotin (sites not given))
[13] = molecular target: T1, CD33 wild type (recombinant, biotinylated) (human, UniProt P20138 18-259, biotinylated with EZ-Link Sulfo-NHS-LC-Biotin (sites not given))
T1 construct: also called WT; CD33 wt

[14] = molecular target: CD33 variant F21H (recombinant, biotinylated) (human, UniProt P20138 22-259, biotinylated with EZ-Link Sulfo-NHS-LC-Biotin (sites not given))
[15] = molecular target: CD33 variant F21Q (recombinant, biotinylated) (human, UniProt P20138 22-259, biotinylated with EZ-Link Sulfo-NHS-LC-Biotin (sites not given))
[16] = molecular target: CD33 variant N20K (recombinant, biotinylated) (human, UniProt P20138 21-259, biotinylated with EZ-Link Sulfo-NHS-LC-Biotin (sites not given))
[17] = molecular target: CD33 variant N20V (recombinant, biotinylated) (human, UniProt P20138 21-259, biotinylated with EZ-Link Sulfo-NHS-LC-Biotin (sites not given))
[18] = molecular target: CD33 variant F21V (recombinant, biotinylated) (human, UniProt P20138 22-259, biotinylated with EZ-Link Sulfo-NHS-LC-Biotin (sites not given))
[19] = molecular target: CD33 variant W22R (recombinant, biotinylated) (human, UniProt P20138 18-259, biotinylated with EZ-Link Sulfo-NHS-LC-Biotin (sites not given))
[20] = molecular target: CD33 variant W22D (recombinant, biotinylated) (human, UniProt P20138 18-259, biotinylated with EZ-Link Sulfo-NHS-LC-Biotin (sites not given))
[21] = molecular target: CD33 variant Y50D (recombinant, biotinylated) (human, UniProt P20138 18-259, biotinylated with EZ-Link Sulfo-NHS-LC-Biotin (sites not given))
[22] = molecular target: CD33 variant Y50R (recombinant, biotinylated) (human, UniProt P20138 18-259, biotinylated with EZ-Link Sulfo-NHS-LC-Biotin (sites not given))
[23] = molecular target: CD33 variant N20G (recombinant, biotinylated) (human, UniProt P20138 21-259, biotinylated with EZ-Link Sulfo-NHS-LC-Biotin (sites not given))
[24] = molecular target: CD33 double variant Y50H_H49H (recombinant, biotinylated) (human, UniProt P20138 18-259, biotinylated with EZ-Link Sulfo-NHS-LC-Biotin (sites not given))
Chain of CD33 double variant Y50H_H49H (recombinant, biotinylated) (P20138 other isoform, or with tags, fused parts or gaps Y50H H49H Y50H H49H): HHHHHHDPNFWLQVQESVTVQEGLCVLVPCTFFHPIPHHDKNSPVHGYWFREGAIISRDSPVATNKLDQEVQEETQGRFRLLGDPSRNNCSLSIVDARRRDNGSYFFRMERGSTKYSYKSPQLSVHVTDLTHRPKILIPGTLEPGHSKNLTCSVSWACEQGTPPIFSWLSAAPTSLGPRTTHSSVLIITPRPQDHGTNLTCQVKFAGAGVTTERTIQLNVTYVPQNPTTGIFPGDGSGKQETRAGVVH

Chain of CD33 variant W22E (recombinant, biotinylated) (P20138 other isoform, or with tags, fused parts or gaps W22E W22E): as the sequence (P20138 other isoform, or with tags, fused parts or gaps Y50H H49H Y50H H49H) above, with W11E, H38Y, H39Y counted along it
Chain of CD33 variant W22T (recombinant, biotinylated) (P20138 other isoform, or with tags, fused parts or gaps W22T W22T): as the sequence (P20138 other isoform, or with tags, fused parts or gaps Y50H H49H Y50H H49H) above, with W11T, H38Y, H39Y counted along it
Chain of CD33 variant Y50D (recombinant, biotinylated) (P20138 other isoform, or with tags, fused parts or gaps Y50D Y50D): as the sequence (P20138 other isoform, or with tags, fused parts or gaps Y50H H49H Y50H H49H) above, with H38Y, H39D counted along it
Chain of CD33 variant Y50R (recombinant, biotinylated) (P20138 other isoform, or with tags, fused parts or gaps Y50R Y50R): as the sequence (P20138 other isoform, or with tags, fused parts or gaps Y50H H49H Y50H H49H) above, with H38Y, H39R counted along it
Chain of CD33 variant F21S (recombinant, biotinylated) (P20138 other isoform, or with tags, fused parts or gaps F21S F21S): as the sequence (P20138 other isoform, or with tags, fused parts or gaps Y50H H49H Y50H H49H) above, with F10S, H38Y, H39Y counted along it
Chain of CD33 variant F21Q (recombinant, biotinylated) (P20138 other isoform, or with tags, fused parts or gaps F21Q F21Q): as the sequence (P20138 other isoform, or with tags, fused parts or gaps Y50H H49H Y50H H49H) above, with F10Q, H38Y, H39Y counted along it
Chain of CD33 variant F21V (recombinant, biotinylated) (P20138 other isoform, or with tags, fused parts or gaps F21V F21V): as the sequence (P20138 other isoform, or with tags, fused parts or gaps Y50H H49H Y50H H49H) above, with F10V, H38Y, H39Y counted along it
T1 sequence (P20138 other isoform, or with tags, fused parts or gaps): as the sequence (P20138 other isoform, or with tags, fused parts or gaps Y50H H49H Y50H H49H) above, with H38Y, H39Y counted along it
Chain of CD33 variant W22D (recombinant, biotinylated) (P20138 other isoform, or with tags, fused parts or gaps W22D W22D): as the sequence (P20138 other isoform, or with tags, fused parts or gaps Y50H H49H Y50H H49H) above, with W11D, H38Y, H39Y counted along it
Chain of CD33 variant N20G (recombinant, biotinylated) (P20138 other isoform, or with tags, fused parts or gaps N20G N20G): as the sequence (P20138 other isoform, or with tags, fused parts or gaps Y50H H49H Y50H H49H) above, with N9G, H38Y, H39Y counted along it
Chain of CD33 variant F21N (recombinant, biotinylated) (P20138 other isoform, or with tags, fused parts or gaps F21N F21N): as the sequence (P20138 other isoform, or with tags, fused parts or gaps Y50H H49H Y50H H49H) above, with F10N, H38Y, H39Y counted along it
Chain of CD33 variant F21L (recombinant, biotinylated) (P20138 other isoform, or with tags, fused parts or gaps F21L F21L): as the sequence (P20138 other isoform, or with tags, fused parts or gaps Y50H H49H Y50H H49H) above, with F10L, H38Y, H39Y counted along it
Chain of CD33 variant F21M (recombinant, biotinylated) (P20138 other isoform, or with tags, fused parts or gaps F21M F21M): as the sequence (P20138 other isoform, or with tags, fused parts or gaps Y50H H49H Y50H H49H) above, with F10M, H38Y, H39Y counted along it
Chain of CD33 variant F21H (recombinant, biotinylated) (P20138 other isoform, or with tags, fused parts or gaps F21H F21H): as the sequence (P20138 other isoform, or with tags, fused parts or gaps Y50H H49H Y50H H49H) above, with F10H, H38Y, H39Y counted along it
Chain of CD33 variant F44P (recombinant, biotinylated) (P20138 other isoform, or with tags, fused parts or gaps F44P F44P): as the sequence (P20138 other isoform, or with tags, fused parts or gaps Y50H H49H Y50H H49H) above, with F33P, H38Y, H39Y counted along it
Chain of CD33 variant W22R (recombinant, biotinylated) (P20138 other isoform, or with tags, fused parts or gaps W22R W22R): as the sequence (P20138 other isoform, or with tags, fused parts or gaps Y50H H49H Y50H H49H) above, with W11R, H38Y, H39Y counted along it
Chain of CD33 variant F21I (recombinant, biotinylated) (P20138 other isoform, or with tags, fused parts or gaps F21I F21I): as the sequence (P20138 other isoform, or with tags, fused parts or gaps Y50H H49H Y50H H49H) above, with F10I, H38Y, H39Y counted along it
Chain of CD33 variant N20K (recombinant, biotinylated) (P20138 other isoform, or with tags, fused parts or gaps N20K N20K): as the sequence (P20138 other isoform, or with tags, fused parts or gaps Y50H H49H Y50H H49H) above, with N9K, H38Y, H39Y counted along it

% WT binding [1]: 23.5 % WT binding
% WT binding [2]: 73.9 % WT binding
% WT binding [3]: 0 % WT binding
% WT binding [4]: 0 % WT binding
% WT binding [5]: 0 % WT binding
% WT binding [6]: 0 % WT binding
% WT binding [7]: 0 % WT binding
% WT binding [8]: 5.25 % WT binding
% WT binding [9]: 0 % WT binding
% WT binding [10]: 5.39 % WT binding
% WT binding [11]: 0 % WT binding
% WT binding [12]: 0 % WT binding
% WT binding [13]: 100 % WT binding
% WT binding [14]: 0 % WT binding
% WT binding [15]: 0 % WT binding
% WT binding [16]: 0 % WT binding
% WT binding [17]: 6.62 % WT binding
% WT binding [18]: 0 % WT binding
% WT binding [19]: 0.86 % WT binding
% WT binding [20]: 6.42 % WT binding
% WT binding [21]: 128 % WT binding
% WT binding [22]: 93.1 % WT binding
% WT binding [23]: 0 % WT binding
% WT binding [24]: 58.5 % WT binding
B1: Refmab #3 (antibody, human IgG1, V domains shown)
VH: QVQLVQSGAEVKKPGSSVKVSCKASGYTFTDYNMHWVRQAPGQGLEWIGYIYPYNGGTGYNQKFKSKATITADESTNTAYMELSSLRSEDTAVYYCARGRPAMDYWGQGTLVTVSS
VL: DIQMTQSPSSLSASVGDRVTITCRASESVDNYGISFMNWFQQKPGKAPKLLIYAASNQGSGVPSRFSGSGSGTDFTLTISSLQPDDFATYYCQQSKEVPWTFGQGTKVEIK
